# Results from the supplement of paper PMC9112550, “Optimization of the antimicrobial peptide Bac7 by deep mutational scanning” (BMC Biology, 2022).
# System: Escherichia coli TOP10
# Assay: shrunken log2 fold change of peptide-encoding DNA abundance (4.5 h post-induction vs induction); higher = less antimicrobial activity (less host growth inhibition)
# Settings: time post-induction: 4.5 h; library: site-saturation at positions 5, 18, 19, 20
# 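Note: peptides expressed intracellularly from a pBAD plasmid library in pooled LB shake-flask culture, induced with 0.3% L-arabinose, DNA abundance read by NGS, three biological replicates, DESeq2 with apeglm shrinkage.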
row,Sequence,shrunken log2 fold change
1,RRIRVRPPRLPRPRPRPAGNPRP,0.141
2,RRIRYRPPRLPRPRPRPCTVPRP,-0.0835
3,RRIRERPPRLPRPRPRPAMEPRP,-0.0417
4,RRIRVRPPRLPRPRPRPHGLPRP,0.0861
5,RRIRHRPPRLPRPRPRPDKNPRP,-0.496
6,RRIRHRPPRLPRPRPRPTWTPRP,2.15e-05
7,RRIRLRPPRLPRPRPRPPSHPRP,0.0809
8,RRIRPRPPRLPRPRPRPDWGPRP,0.107
9,RRIRIRPPRLPRPRPRPQAWPRP,0.386
10,RRIRPRPPRLPRPRPRPSTAPRP,-0.105
11,RRIRHRPPRLPRPRPRPVRCPRP,0.592
12,RRIRLRPPRLPRPRPRPDAFPRP,0.0575
13,RRIRMRPPRLPRPRPRPDYTPRP,-0.0182
14,RRIRLRPPRLPRPRPRPVHLPRP,-0.0235
15,RRIRHRPPRLPRPRPRPLDCPRP,-0.384
16,RRIRCRPPRLPRPRPRPTDRPRP,0.15
17,RRIRTRPPRLPRPRPRPYQRPRP,-0.0311
18,RRIRQRPPRLPRPRPRPVYVPRP,-0.216
19,RRIRMRPPRLPRPRPRPNSEPRP,0.128
20,RRIRERPPRLPRPRPRPKPMPRP,0.21

row,Sequence,shrunken log2 fold change
1,RRIRMRPPRLPRPRPRPQNQPRP,-0.183
2,RRIRYRPPRLPRPRPRPRSFPRP,-0.0868
3,RRIRARPPRLPRPRPRPLFMPRP,-0.166
4,RRIRVRPPRLPRPRPRPARSPRP,-0.024
5,RRIRYRPPRLPRPRPRPACRPRP,-0.077
6,RRIRCRPPRLPRPRPRPWQYPRP,0.0686
7,RRIRHRPPRLPRPRPRPAPFPRP,-0.257
8,RRIRQRPPRLPRPRPRPFSFPRP,-0.272
9,RRIRNRPPRLPRPRPRPRMKPRP,-0.0273
10,RRIRSRPPRLPRPRPRPRRGPRP,0.538
11,RRIRNRPPRLPRPRPRPDHPPRP,-0.0362
12,RRIRARPPRLPRPRPRPCHWPRP,-0.153
13,RRIRHRPPRLPRPRPRPGPHPRP,-0.14
14,RRIRMRPPRLPRPRPRPPIKPRP,0.288
15,RRIRLRPPRLPRPRPRPVLGPRP,0.192
16,RRIRQRPPRLPRPRPRPDFPPRP,0.065
17,RRIRHRPPRLPRPRPRPAGEPRP,-0.0717
18,RRIRNRPPRLPRPRPRPYGLPRP,-0.106
19,RRIRERPPRLPRPRPRPAGNPRP,-0.0376
20,RRIRNRPPRLPRPRPRPEMGPRP,-0.0261

row,Sequence,shrunken log2 fold change
1,RRIRHRPPRLPRPRPRPAIFPRP,-0.00284
2,RRIRKRPPRLPRPRPRPCYGPRP,-0.237
3,RRIRRRPPRLPRPRPRPNRWPRP,0.107
4,RRIRYRPPRLPRPRPRPPNRPRP,-0.0643
5,RRIRCRPPRLPRPRPRPYQFPRP,-0.0218
6,RRIRYRPPRLPRPRPRPDAHPRP,-0.0156
7,RRIRKRPPRLPRPRPRPVSDPRP,0.156
8,RRIRQRPPRLPRPRPRPIYFPRP,-0.115
9,RRIRGRPPRLPRPRPRPAMMPRP,0.51
10,RRIRARPPRLPRPRPRPHMVPRP,-0.069
11,RRIRKRPPRLPRPRPRPCTMPRP,-0.271
12,RRIRWRPPRLPRPRPRPQTRPRP,0.122
13,RRIRQRPPRLPRPRPRPEFFPRP,0.0969
14,RRIRIRPPRLPRPRPRPGSKPRP,-0.0906
15,RRIRGRPPRLPRPRPRPNTWPRP,0.237
16,RRIRARPPRLPRPRPRPMMSPRP,0.186
17,RRIRVRPPRLPRPRPRPDALPRP,-0.0285
18,RRIRRRPPRLPRPRPRPWIDPRP,-0.0585
19,RRIRARPPRLPRPRPRPTAWPRP,0.863
20,RRIRQRPPRLPRPRPRPLEAPRP,0.225
